According to patent US7294472B2, “Method for identifying modulators of G protein coupled receptor signaling” (Caden Biosciences, priority 2001, dated 2007):
pIC50: −log10 of the molar value. Where no end group is shown, it is not given here.

What was measured:
[1] = biological target: T1, PAR1 (Homo sapiens, UniProt P25116); assay: ELISA binding of purified MBP clones to SF9 membranes expressing PAR1 or muscarinic M1 receptor; design: expressed in transfected cells; host or cells: membranes of Sf9 insect cells infected with ThR/pBluebac recombinant virus; conditions: for binding affinity for PAR1 (in words): purified MBP clones, SF9 membranes; for specificity (in words): PAR1 versus Gq-coupled muscarinic M1 receptor
T1 sequence (P25116 22-425): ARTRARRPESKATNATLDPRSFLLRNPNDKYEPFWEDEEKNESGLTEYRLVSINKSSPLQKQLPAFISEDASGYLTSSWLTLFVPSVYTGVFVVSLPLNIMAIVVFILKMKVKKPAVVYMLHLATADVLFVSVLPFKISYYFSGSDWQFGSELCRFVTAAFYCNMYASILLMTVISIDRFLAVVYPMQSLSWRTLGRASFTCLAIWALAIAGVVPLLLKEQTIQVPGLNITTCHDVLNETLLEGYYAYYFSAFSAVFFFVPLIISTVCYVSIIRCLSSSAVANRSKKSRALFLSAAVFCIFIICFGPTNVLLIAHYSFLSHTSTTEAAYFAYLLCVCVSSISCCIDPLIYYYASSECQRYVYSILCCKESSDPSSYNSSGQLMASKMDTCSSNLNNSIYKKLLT
Experimental: To identify high affinity peptides that bind PAR1, membranes prepared from mammalian cells (Chinese hamster ovary) overexpressing PAR1 were panned with the G11 peptide library. ELISA binding affinity results of selected clones are shown in FIG. 9 for their binding to membranes prepared from SF9 cells expressing either PAR1 or the Gq-coupled muscarinic M1 receptor. To quantitate the binding, purified MBP clones were analyzed using ELISA methods in which the secondary antibody was conjugated to HRP. The binding for the control MBP-Gq fusion protein is shown. The data are the average of two separate experiments done in duplicate.

[2] = biological target: T2, rhodopsin (Bos taurus, UniProt P02699); assay: "extra MII" assay: stabilization of metarhodopsin II; type: biochemical, bovine
T2 construct: Bovine rod outer segments (rhodopsin-containing membranes) were prepared from fresh retinas; from tissue; host or cells: bovine retina, rod outer segment membranes (EDTA- and urea-washed)
Source text: Rhodopsin can be measured spectrophotometrically in many of its conformational states. The high affinity, biologically active rhodopsin state can be easily differentiated from its precursor, MI, by the “extra” MII assay. See Example 35. This assay relies on the observation that under conditions of high pH and low temperature, MII is stabilized in the presence of Gt and can be spectrophotometrically measured. The ability of the C-terminal peptide to stabilize Meta II in the same manner as the heterotrimeric Gt, provides the tools to investigate the structural basis of the interaction of G proteins with the agonist binding sites of activated receptors.
For the “extra MII” assay, EDTA-washed rhodopsin (Example 5; 5 μM) is incubated in a 50 mM HEPES buffer, pH 8.2, with 100 mM NaCl, 1 mM MgCl2, and 1 mM DTT at 5.3° C., in the absence or presence of varying concentrations of Gt340-350 analogs or Gt. The sample is maintained at 5.4° C. using a water-jacketed and thermostated circulator cuvette holder in an SLM Aminco DW2000 spectrophotometer at 390 and 440 nm. A flash of light bleaching 10% of the rhodopsin is presented and after a 1 min incubation, a second spectrum is measured and the difference in spectrum calculated. “Extra” MII is calculated as the difference between the absorbance at 390 and 440. Dose response curves of MII stabilization by αt340350 (λ), mutant α340-350K341L(ν), and heterotrimeric Gt (v) were analyzed by non-linear regression using the program GraphPad PRISM and are shown in FIG. 23.
EDTA-washed rhodopsin (5 μM) was incubated in a 50 mM HEPES buffer, pH 8.2, with 100 mM NaCl, 1 mM MgCl2, and 1 mM DTT at 5.3° C., and “extra” MII was measured. For compounds that enhanced MBP-8 binding over 25% using the color coded readout, dose studies were performed to generate EC50 curves. Table XXII below provides the calculated EC50 for metarhodopsin II stabilization of each compound.

[3] = biological target: T3, light-activated rhodopsin (Bos taurus, UniProt P02699); assay: Competition of heterotrimeric Gt with MBP high affinity peptide fusion proteins for rhodopsin; type: binding, bovine; conditions: 1 μM heterotrimeric Gt
T3 construct: Bovine rod outer segments (rhodopsin-containing membranes) were prepared from fresh retinas; from tissue; host or cells: bovine retina, rod outer segment membranes (EDTA- and urea-washed)
Experimental: When light-activated rhodopsin was screened for peptides based on the C-terminus of Gt, a large number of high-affinity sequences were obtained. Binding of MBP fusion proteins containing the high affinity peptide from the library (sequences from clones 8, 9, 10, 18, 23, 24, as well as pELM17 which encodes the wild-type peptide sequence, and pELM6 which contains no peptide; MBP-8, MBP-9, MBP-10, MBP-18, MBP-23, MBP-24, MBP-pELM17) were assessed for their ability to bind rhodopsin (0.5 μg rhodopsin/well) in the presence or absence of heterotrimeric Gt.
Lysate (50 μl) from each clone was added and incubated in the light. After 45 minutes, 1 μM heterotrimeric Gt was added and the solution incubated for 30 minutes. Anti-MBP antibody was added, followed by goat anti-rabbit alkaline phosphatase conjugated antibody and substrate. The color was allowed to develop.

[4] = biological target: T1, PAR1; assay: Binding of MBP-Gαq to purified, reconstituted activated PAR1 (ELISA); design: made in house; host or cells: Sf9 insect cells infected with ThR/pBluebac recombinant virus, purified on an anti-PAR1 monoclonal antibody column; conditions: purified reconstituted PAR1 with thrombin receptor activating peptide
Experimental: Microtiter wells were coated with purified, reconstituted PAR1 in the presence of […] thrombin receptor activating peptide, as described above in Example 6. Purified maltose binding protein-Gαq (MBP-Gαq) was added at the concentrations indicated in FIG. 11 and incubated one hour on a shaker at 4° C. The wells were rinsed and then probed with a rabbit anti-maltose binding protein antibody, followed by alkaline phosphatase conjugated secondary antibodies, as described above. Substrate was added and the color was allowed to develop about 20 minutes. Absorbance at 405 nm was measured and dose-response curves were calculated using GraphPad Prism (version 2.0). See results in FIG. 11.

T3 sequence (P02699 whole entry, the tested form may be a part): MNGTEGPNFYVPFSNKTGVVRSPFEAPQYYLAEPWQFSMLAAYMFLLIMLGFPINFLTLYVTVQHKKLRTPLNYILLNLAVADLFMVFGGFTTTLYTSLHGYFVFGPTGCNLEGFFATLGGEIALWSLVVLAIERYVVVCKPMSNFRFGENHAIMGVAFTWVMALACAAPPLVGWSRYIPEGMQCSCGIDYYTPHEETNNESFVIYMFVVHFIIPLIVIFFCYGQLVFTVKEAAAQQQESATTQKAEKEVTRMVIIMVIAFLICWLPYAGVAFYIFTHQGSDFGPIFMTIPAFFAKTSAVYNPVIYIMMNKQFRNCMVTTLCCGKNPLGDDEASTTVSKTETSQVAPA
T2 sequence (P02699 whole entry): as the sequence (P02699 whole entry, the tested form may be a part) above

Row | Substance | binding affinity for PAR1 (in words) [1] | specificity (in words) [1] | further results
1 | LQLNRNEYYLV (also: fused to MBP) [PAR-13, MBP clone, linker VRPS] | high affinity binding | – | –
2 | heterotrimeric Gt: heterotrimeric G protein, transducin (Gt) [reference compound] | – | – | stabilization of MII (in words) [2]: stabilize the active form of rhodopsin; effect on high affinity peptide fusion protein binding to light-activated rhodopsin (in words) [3]: competitively inhibited
3 | LHLNLKEYNLV (also: fused to MBP) [PAR-33, MBP clone, linker LSTN] | low affinity | low specificity | –
4 | MBP-Gαq: purified maltose binding protein fused to native Gαq C-terminal peptide | – | – | pIC50 [4]: 6.67
5 | LQQKLKEYSLV (also: fused to MBP) [PAR-23, MBP clone, linker LSRS] | low affinity | low specificity | –
